Measured values published in patent US20160272683A1 (Novo Nordisk, published 2016).
Numbered stars: 1 amine (or outer) side, 2 acyl side, 3 side chain; on linkers, the order of the positions; unused ones are H or OH. * marks the point of attachment. C20 diacid = O=C(O)CCCCCCCCCCCCCCCCCCC(=O)*; C18 diacid = O=C(O)CCCCCCCCCCCCCCCCC(=O)*; C16 diacid = O=C(O)CCCCCCCCCCCCCCC(=O)*; γGlu = O=C(O)[C@H](CCC(=O)[*:2])N[*:1]; C14 diacid = O=C(O)CCCCCCCCCCCCC(=O)*; AEEA = NCCOCCOCC(=O)O

T1: human amylin receptor (amylin 3(a) receptor: human calcitonin receptor with RAMP-3) (human, UniProt P30988 25-474; O60896 24-148, limits assumed)
T1 construct: whole, on cells; Assay V: membranes of the Amylin 3(a)/CRE-luc BHK cells on SPA beads; also called hAmylin-R
T1 sequence (looked up) 1: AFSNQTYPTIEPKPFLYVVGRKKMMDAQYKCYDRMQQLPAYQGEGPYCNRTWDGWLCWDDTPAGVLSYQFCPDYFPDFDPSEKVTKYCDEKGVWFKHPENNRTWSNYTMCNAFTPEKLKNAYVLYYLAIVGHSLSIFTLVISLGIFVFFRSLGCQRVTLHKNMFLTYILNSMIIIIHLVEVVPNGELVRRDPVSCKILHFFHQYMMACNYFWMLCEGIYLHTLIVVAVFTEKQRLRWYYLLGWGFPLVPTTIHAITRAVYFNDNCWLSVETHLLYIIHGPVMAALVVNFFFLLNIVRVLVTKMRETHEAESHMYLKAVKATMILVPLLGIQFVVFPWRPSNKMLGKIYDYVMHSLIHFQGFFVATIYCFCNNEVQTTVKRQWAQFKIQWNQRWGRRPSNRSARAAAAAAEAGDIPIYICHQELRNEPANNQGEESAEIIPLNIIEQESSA
T1 sequence (looked up) 2: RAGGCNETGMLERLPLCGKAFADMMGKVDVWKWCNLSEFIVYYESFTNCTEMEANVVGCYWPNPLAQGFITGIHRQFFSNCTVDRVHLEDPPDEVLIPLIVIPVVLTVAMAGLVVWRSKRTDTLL

T2: human calcitonin receptor (human, UniProt P30988 25-474)
T2 construct: whole, on cells; Assay VII: membranes on SPA beads; also called hCT-R; hCTR
T2 sequence (looked up): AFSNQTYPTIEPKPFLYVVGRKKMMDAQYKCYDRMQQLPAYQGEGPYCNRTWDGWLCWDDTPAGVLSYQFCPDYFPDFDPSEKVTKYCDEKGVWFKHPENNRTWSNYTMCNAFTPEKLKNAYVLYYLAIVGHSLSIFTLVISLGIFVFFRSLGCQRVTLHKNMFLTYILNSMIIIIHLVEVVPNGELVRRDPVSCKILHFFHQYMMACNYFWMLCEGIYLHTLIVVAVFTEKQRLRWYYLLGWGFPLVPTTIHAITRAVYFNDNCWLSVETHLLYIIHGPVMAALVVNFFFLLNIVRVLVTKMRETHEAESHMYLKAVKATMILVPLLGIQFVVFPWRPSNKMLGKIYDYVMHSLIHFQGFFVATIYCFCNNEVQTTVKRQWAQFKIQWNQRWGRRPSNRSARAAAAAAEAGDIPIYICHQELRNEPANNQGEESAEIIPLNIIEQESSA


Tests used:
[1] = molecular target: T1, human amylin receptor (amylin 3(a) …); assay: SPA competition vs 125I-rat amylin, membranes with human CTR + RAMP-3 (Assay V)
[2] = molecular target: T2, human calcitonin receptor; assay: SPA competition vs 125I-calcitonin, membranes with human CTR (Assay VII)
Summary of the method: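 SPA competition on membranes from BHK tk'ts 13 cells stably expressing human calcitonin receptor plus CRE-luciferase reporter; membranes 35 ng/μL final with 0.05 mg/well beads.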

| Binder | IC50 [1] [nM] | IC50 [2] [nM] |
| --- | --- | --- |
| {C20 diacid-γGlu-AEEA-AEEA-AEEA-AEEA-AEEA}-ASELSTAALGRLSAELHELATLPRTETGSGSP-NH2 (mimylin derivative; des1 = residue 1 deleted; also called Ex. #45; 45) [[N-terminal(C20 diacid-gGlu-5xOEG), des1, 30S, 31G]mimylin] | 0.389 | 0.112 |
| {C18 diacid-γGlu}-ASELSTAALGRLSAELHELATLPRTETGSGSP-NH2 (mimylin derivative; des1 = residue 1 deleted; also called Ex. #46; 46) [[N-terminal(C18 diacid-gGlu), des1, 30S, 31G]mimylin] | 0.516 | 0.084 |
| {C16 diacid-γGlu}-ASELSTAALGRLSAELHELATLPRTETGSGSP-NH2 (mimylin derivative; des1 = residue 1 deleted; also called Ex. #47; 47) [[N-terminal(C16 diacid-gGlu), des1, 30S, 31G]mimylin] | 0.037 | 0.024 |
| {C18 diacid}-ASELSTAALGRLSAELHELATLPRTETGSGSP-NH2 (mimylin derivative; des1 = residue 1 deleted; also called Ex. #48; 48) [[N-terminal(C18 diacid), des1, 30S, 31G]mimylin] | 0.077 | 0.034 |
| {C16 diacid}-ASELSTAALGRLSAELHELATLPRTETGSGSP-NH2 (mimylin derivative; des1 = residue 1 deleted; also called Ex. #49; 49) [[N-terminal(C16 diacid), des1, 30S, 31G]mimylin] | 0.015 | 0.011 |
| {C14 diacid-γGlu}-ASELSTAALGRLSAELHELATLPRTETGSGSP-NH2 (mimylin derivative; des1 = residue 1 deleted; also called Ex. #50; 50) [[N-terminal(C14 diacid-gGlu), des1, 30S, 31G]mimylin] | 0.054 | 0.023 |
| {C14 diacid}-ASELSTAALGRLSAELHELATLPRTETGSGSP-NH2 (mimylin derivative; des1 = residue 1 deleted; also called Ex. #51; 51) [[N-terminal(C14 diacid), des1, 30S, 31G]mimylin] | 0.773 | 0.14 |
| {C20 diacid-γGlu}-AASELSTAALGRLSAELHELATYPRTETGSGSP-NH2 (SMILES CC(C)C[C@H](NC(=O)[C@H](C)NC(=O)[C@H](C)NC(=O)[C@@H](NC(=O)[C@H](CO)NC(=O)[C@H](CC(C)C)NC(=O)[C@H](CCC(=O)O)NC(=O)[C@H](CO)NC(=O)[C@H](C)NC(=O)[C@H](C)NC(=O)CC[C@H](NC(=O)CCCCCCCCCCCCCCCCCCC(=O)O)C(=O)O)[C@@H](C)O)C(=O)NCC(=O)N[C@@H](CCCNC(=N)N)C(=O)N[C@@H](CC(C)C)C(=O)N[C@@H](CO)C(=O)N[C@@H](C)C(=O)N[C@@H](CCC(=O)O)C(=O)N[C@@H](CC(C)C)C(=O)N[C@@H](Cc1c[nH]cn1)C(=O)N[C@@H](CCC(=O)O)C(=O)N[C@@H](CC(C)C)C(=O)N[C@@H](C)C(=O)N[C@H](C(=O)N[C@@H](Cc1ccc(O)cc1)C(=O)N1CCC[C@H]1C(=O)N[C@@H](CCCNC(=N)N)C(=O)N[C@H](C(=O)N[C@@H](CCC(=O)O)C(=O)N[C@H](C(=O)NCC(=O)N[C@@H](CO)C(=O)NCC(=O)N[C@@H](CO)C(=O)N1CCC[C@H]1C(N)=O)[C@@H](C)O)[C@@H](C)O)[C@@H](C)O, mimylin derivative; also called Ex. #57; 57) [[N-terminal(C20 diacid-gGlu), 1A, 23Y, 30S, 31G]mimylin] | 0.124 | 0.108 |
